Reference: publication PMC9035363

How the values were obtained:
[1] = molecular target: SARS-CoV-2 S B.1.1.7 on CHO cells (SARS-CoV-2) (UniProt P0DTC2)
[2] = molecular target: SARS-CoV-2 S B.1.351 on CHO cells (SARS-CoV-2) (UniProt P0DTC2)

For “LY-CoV1404 (bebtelovimab), full-length human IgG1 mAb (antibody)”, the VSV pseudovirus neutralisation IC50 [1] was 1 ng/mL, the VSV pseudovirus neutralisation IC90 [1] was 9 ng/mL and the lentiviral pseudovirus neutralisation IC50 [1] was 4 ng/mL. For the same substance, the lentiviral pseudovirus neutralisation IC90 [1] was 11 ng/mL, the VSV pseudovirus neutralisation IC50 [2] was 2 ng/mL and the VSV pseudovirus neutralisation IC90 [2] was 9 ng/mL. The lentiviral pseudovirus neutralisation IC50 [2] was 3 ng/mL and the lentiviral pseudovirus neutralisation IC90 [2] was 9 ng/mL.
